± gives the standard deviation of the averaged measurements.
What follows are sequences tested on Saccharomyces cerevisiae (assay: protein stability index of tFT-peptide fusion (C-terminal peptide) (PSI (0-1 scale)); higher = more stable (slower turnover)). Conditions: genetic background: wild type; temperature: 30 C.
Protocol: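 Multiplexed protein stability (MPS) profiling in S. cerevisiae. Random 12-aa peptides (tFT-X12 library) are fused to the C-terminus of a sfGFP-mCherry tandem fluorescent timer, after mCherry and a GGGS linker. Cells are FACS-sorted into 8 mCherry/sfGFP bins and deep-sequenced. The protein stability index (PSI) is the read-weighted bin average, scaled from 0 (unstable) to 1 (stable). Only peptides with >10 reads are reported; cells were grown at 30 °C in SC-His with glucose.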
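Also: PSI is a weighted mean of sequencing reads over stability bins, variants kept only with over 10 reads, mCherry proximal and sfGFP distal, peptide attached via GGGS linker.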

Sequence | protein stability index
KITLKSNKTTDN | 0.741 ± 0.018
KIVCTLGPAFAR | 0.672 ± 0.051
KIVKNQKKKKQR | 0.732 ± 0.019
KKARGYTLEQRR | 0.736 ± 0.051
KKEEEGNREEKL | 0.689 ± 0.038
KKEEEGRTKECR | 0.694 ± 0.093
KKEEKKKNKNDR | 0.679 ± 0.027
KKEISEKTNKKL | 0.69 ± 0.012
KKEKKVKKNRKR | 0.729 ± 0.021
KKEKQKKKIKTK | 0.703 ± 0.055
KKERTGTKKKKK | 0.698 ± 0.048
KKESNFVKKKEI | 0.741 ± 0.024
KKGIKEYYKVQK | 0.775 ± 0.16
KKHEKVKSNTKR | 0.666 ± 0.03
KKIYEKRKKLRK | 0.756 ± 0.057
KKKDRENIKNKI | 0.7151 ± 0.0068
KKKEENGGRGDE | 0.7008 ± 0.0041
KKKKDQQQELKN | 0.657 ± 0.032
KKKKEKKETKKK | 0.67 ± 0.028
KKKKEKKYKERY | 0.721 ± 0.13
KKKKGKKRRTRK | 0.72 ± 0.041
KKKKKIKKKHNK | 0.6859 ± 0.001
KKKKKKGKGAKT | 0.617 ± 0.011
KKKKKKKKKKTR | 0.6407 ± 0.0016
KKKKKKKKTNKK | 0.762 ± 0.084

Sequence | protein stability index
KKKKKKKRNKHN | 0.706 ± 0.048
KKKKKKNKKTKN | 0.711 ± 0.045
KKKKKKQQKKRK | 0.686 ± 0.039
KKKKKKTKKKNK | 0.719 ± 0.016
KKKKKKVRYIRI | 0.671 ± 0.046
KKKKKQKDTKHR | 0.682 ± 0.018
KKKKKQKKKKKK | 0.643 ± 0.048
KKKKKQTKGKNK | 0.688 ± 0.12
KKKKKRKKKKEK | 0.683 ± 0.044
KKKKKTKKKAEK | 0.701 ± 0.022
KKKKPKKKTQKS | 0.713 ± 0.04
KKKKQNKRKRKT | 0.635 ± 0.0086
KKKKQRKQEKKI | 0.642 ± 0.008
KKKKREKSKHRK | 0.714 ± 0.022
KKKKRIQEKEII | 0.63 ± 0.015
KKKKRKIPKKKK | 0.635 ± 0.11
KKKKTEIKRNKT | 0.689 ± 0.026
KKKKTKKKTNSI | 0.727 ± 0.0076
KKKKTKYIKRKK | 0.701 ± 0.18
KKKKTQKKKTKQ | 0.668 ± 0.019
KKKKTVHKKNRR | 0.699 ± 0.022
KKKLKYKGIRTN | 0.679 ± 0.049
KKKNNRITVFKV | 0.636 ± 0.067
KKKQKYRREEKE | 0.724 ± 0.051
KKKQPKKNQNPT | 0.767 ± 0.075

Sequence | protein stability index
KKKRKKSKKKKK | 0.642 ± 0.1
KKKRRFTQEMDK | 0.684 ± 0.17
KKKTKNGKEKRR | 0.7 ± 0.019
KKLRNKKGKRYA | 0.645 ± 0.086
KKLSSRTQGLHG | 0.746 ± 0.059
KKLSTYSVIEKS | 0.601 ± 0.042
KKMKEKKKRNHA | 0.712 ± 0.035
KKNKAKRKKYIV | 0.616 ± 0.03
KKNKHKEKIKKK | 0.723 ± 0.069
KKQKKHKKEKEK | 0.638 ± 0.019
KKQKKKKSTKRN | 0.722 ± 0.038
KKQRKRTKRKRK | 0.693 ± 0.048
KKREEVKKNIKI | 0.681 ± 0.019
KKRERNDKRGCQ | 0.652 ± 0.024
KKRKKKKQTKRK | 0.691 ± 0.022
KKRKKKRTEPQP | 0.6421 ± 0.00099
KKRKNNKIRKKK | 0.723 ± 0.0053
KKRTTKEKKQHK | 0.693 ± 0.033
KKSQKSKNKTHN | 0.571 ± 0.0066
KKTEGATEERKR | 0.692 ± 0.015
KKTIENEGRNIL | 0.645 ± 0.0069
KKTIEQNNLTIV | 0.7091 ± 0.002
KLGWSVTRAEVN | 0.687 ± 0.017
KLKITSKDKIIK | 0.671 ± 0.016
KLLRPMVLPQRT | 0.615 ± 0.02

Sequence | protein stability index
KLSIKNLFDLLY | 0.691 ± 0.033
KLTVPTKTIVHT | 0.651 ± 0.03
KLVGASVYECQR | 0.672 ± 0.012
KMGTEEGRVWVG | 0.651 ± 0.054
KMVTRKKNEEKD | 0.6328 ± 0.0029
KNEKEKKTKMRN | 0.754 ± 0.14
KNGLERFTSNRS | 0.641 ± 0.051
KNKQSKNKSKRK | 0.712 ± 0.038
KNKTRSEISKNS | 0.6974 ± 0.0017
KNNSKKRKLKPR | 0.718 ± 0.14
KNRKKIKIVCVK | 0.559 ± 0.026
KNRKTQSNQTKI | 0.719 ± 0.025
KNSNIDKMIRKE | 0.6973 ± 0.0012
KNTRIKKMKRRT | 0.827 ± 0.097
KNTVRKCNGRMH | 0.57 ± 0.063
KPRKEKRGLVNS | 0.664 ± 0.039
KPSHNEARKKGG | 0.681 ± 0.014
KQGKKKDEWTRG | 0.6945 ± 0.0023
KQKIKKRIKKTI | 0.6958 ± 0.0029
KQKIKTDKYKKD | 0.656 ± 0.051
KQKLEGTIIREL | 0.674 ± 0.024
KQRENMCRCARE | 0.712 ± 0.074
KQRTRKYLNSRN | 0.654 ± 0.12
KRDNKNKDKQKK | 0.7 ± 0.024
KREKKNTYIKKV | 0.671 ± 0.04

Sequence | protein stability index
KREQKPHPKLKL | 0.5682 ± 0.0021
KRGGRGEKAEGK | 0.655 ± 0.024
KRGRISKKRDSS | 0.759 ± 0.017
KRGSREQQRYWK | 0.659 ± 0.027
KRIGLGEERQKR | 0.57 ± 0.078
KRIIRSYHFLGC | 0.698 ± 0.047
KRIKTEKRRSKK | 0.748 ± 0.046
KRILKEKRRKKN | 0.658 ± 0.036
KRITLNADIIIK | 0.629 ± 0.11
KRKHQSPLLNTR | 0.705 ± 0.021
KRKQDKEAEKKS | 0.704 ± 0.019
KRKREKKEKADA | 0.66 ± 0.043
KRLCTYRMIGSL | 0.521 ± 0.0089
KRLNRVHRSTKV | 0.687 ± 0.021
KRNSLSLIPQII | 0.655 ± 0.071
KRPVTPTFGRLQ | 0.645 ± 0.067
KRQKENRKNKKI | 0.704 ± 0.019
KRRRWFILSGPL | 0.685 ± 0.008
KRSGEGREKIRK | 0.703 ± 0.028
KRSIVSTDKDRY | 0.603 ± 0.045
KRVIVRLASYAS | 0.55909 ± 2.1e-05
KSGVWLWGGGGG | 0.724 ± 0.032
KSKKERREKKKA | 0.665 ± 0.031
KSKKNKTEKTKE | 0.665 ± 0.027
KSKKRERDETKK | 0.645 ± 0.033

Sequence | protein stability index
KSKQKNKTQVKN | 0.66 ± 0.023
KSPSTRATTHTY | 0.678 ± 0.028
KSRLYVDVLMQR | 0.659 ± 0.077
KSRTRNNVSRVG | 0.6703 ± 0.0062
KSVVRLPHLPLE | 0.695 ± 0.02
KTDNTRTQKMVR | 0.808 ± 0.011
KTEEERKKAEKE | 0.653 ± 0.076
KTGEKIKKNNIK | 0.692 ± 0.059
KTKERKKQMRKI | 0.6822 ± 0.0042
KTKKKNKKDQKM | 0.6661 ± 0.0047
KTKKKRKQKGKQ | 0.684 ± 0.064
KTKKRKTKKKTK | 0.723 ± 0.036
KTKKTKRRHKAE | 0.662 ± 0.022
KTKNIKTKDKPE | 0.673 ± 0.024
KTKSKNGNQRAT | 0.711 ± 0.025
KTQKKKKKNKNF | 0.51 ± 0.028
KTVKNGKEVKIH | 0.635 ± 0.12
KTVVYDDRKQLR | 0.674 ± 0.0096
KVAILAIPKCWT | 0.644 ± 0.022
KVDRREGSRGGG | 0.6816 ± 0.004
KVGLGGRLQSYP | 0.6338 ± 0.0054
KVKGGELVRTLR | 0.736 ± 0.021
KVSPTAGLTSRI | 0.711 ± 0.061
KVSSCLTNFILV | 0.552 ± 0.029
KVVSGLKSGPVQ | 0.677 ± 0.055

Sequence | protein stability index
KWSETGQDGIER | 0.701 ± 0.081
KYIKNKKEKTEE | 0.701 ± 0.017
KYISKKKKEKKK | 0.684 ± 0.06
KYPVDHHTPLSS | 0.703 ± 0.021
LAARRHRACPPR | 0.67 ± 0.014
LAASVTERPAGR | 0.703 ± 0.011
LAAWQPTSYASV | 0.592 ± 0.092
LACLPPLLLFSL | 0.539 ± 0.00097
LADSLILWRFPT | 0.722 ± 0.087
LAEFTCTQGCSY | 0.67 ± 0.088
LAFGLGSFVWNC | 0.6765 ± 0.00075
LAKVNSLLGFSK | 0.734 ± 0.037
LALDPVNLVTSL | 0.682 ± 0.051
LAPLRGHDHSRA | 0.6638 ± 0.0055
LARLFQLLERPW | 0.688 ± 0.063
LATIPTFPPLPP | 0.634 ± 0.089
LCAFPFSHPSSI | 0.74 ± 0.05
LCGAFLPPPFSR | 0.686 ± 0.052
LCGLDCLLRPCY | 0.681 ± 0.011
LCGYAMSFRPLG | 0.73 ± 0.091
LCHLSSFLAALS | 0.618 ± 0.012
LCILIFLFRCIL | 0.551 ± 0.036
LCLDHAKQNPGK | 0.6641 ± 0.0051
LCLRPVISLPHL | 0.716 ± 0.075
LCPLPPPTVPLP | 0.742 ± 0.02

Sequence | protein stability index
LCPVLRSPFFLF | 0.55128 ± 0.00052
LCVAFWLGLPTT | 0.598 ± 0.011
LCVGQVGLWVGR | 0.703 ± 0.042
LCYLPLTLPPVL | 0.582 ± 0.036
LDEQIKIRIKEK | 0.721 ± 0.046
LDFSAWRYGRSW | 0.83 ± 0.038
LDGLFWHRPCFK | 0.734 ± 0.061
LDLSIKNPIKWR | 0.747 ± 0.089
LDQQKSCHLIFL | 0.663 ± 0.033
LDSPGIDRRSFM | 0.737 ± 0.064
LEGGACFGVCEW | 0.6956 ± 0.0048
LERDRLINVLPI | 0.726 ± 0.042
LESEDDRKLSLL | 0.659 ± 0.011
LETETKKPQNQK | 0.724 ± 0.11
LFCLCYDVCVPS | 0.662 ± 0.035
LFCVSGSRPLTF | 0.714 ± 0.034
LFFLRFSHFFVG | 0.605 ± 0.014
LFFRVLDRLGEI | 0.726 ± 0.021
LFGAIPRVEHAD | 0.718 ± 0.088
LFGNPVLSYFVI | 0.5549 ± 0.0053
LFLARLSGHFGA | 0.728 ± 0.16

From the supplement of paper PMC10724198
